What was measured:
[1] = substrate: OC[C@H]1OC(O)[C@H](O)[C@@H](O)[C@@H]1O; assay: purified protein, by the assay type; settings: other: apparent, wt, DCIP assay, pH 5.5, 30° C.
[2] = substrate: OC[C@H]1O[C@H](O[C@H]2[C@H](O)[C@@H](O)C(O)O[C@@H]2CO)[C@H](O)[C@@H](O)[C@@H]1O; assay: purified protein, by the assay type; settings: other: apparent, wt, DCIP assay, pH 5.5, 30° C.
Description: Enzyme activity was assayed at 30° C. using either the DCIP (Karapetyan et al., 2005 Journal of Biotechnology 121: 34-48) or cytochrome c (Canevascini et al., 1991, European Journal of Biochemistry 198: 43-52) as electron acceptor. […] Stock solutions of carbohydrates used for kinetic measurements were prepared in the respective buffer and allowed to stand overnight for mutarotation, while stock solutions of electron acceptors were prepared in water and immediately used. The reaction stoichiometry is 1 for the two-electron acceptor DCIP (1 mole of DCIP reduced per mole of carbohydrate oxidized), but 2 for the one-electron acceptor cytochrome c. Kinetic constants were calculated by fitting the observed data to the Henri-Michaelis-Menten equation or to the adapted model for substrate inhibition using nonlinear least-squares regression and the program SigmaPlot (Systat Software, San Jose, Calif., USA).
Enzymes were purified to homogeneity in a two-step purification. The sample was loaded on a 20 mL PHE Sepharose FF column (HR26/20) equilibrated with 50 mM Na-acetate buffer pH 5.5 containing 20% ammonium sulfate. Proteins were eluted by increasing the concentration of the elution buffer (50 mM Na-acetate buffer pH 5.5) from 0 to 100% in 5 column volumes and fractions containing CDH activity were pooled. After diafiltration with a polyethersulfone flat-stack cross flow module with a cut-off of 10 kDa (Viva Flow 50, Sartorius, Göttingen, Germany) until conductivity of 5 mS cm^−1 in 20 mM Na-acetate pH 5.5 the samples were loaded on a 20 mL Q-Source column (HR26/20) equilibrated with a 20 mM Na-acetate buffer pH 5.5. CDH was eluted by increasing the concentration of the elution buffer (50 mM Na-acetate buffer pH 5.5 containing 0.5 M NaCl) from 0 to 100% in 50 column volumes. Fractions were tested for CDH activity and pooled according to the highest Reinheitszahl (RZ, calculated from the absorbance ratio 420 nm/280 nm). Purified enzymes were concentrated and diafiltered in 50 mM citrate buffer, pH 5.5, aliquoted and kept at 4° C. for further use.

B1: Corynascus thermophilus cellobiose dehydrogenase (CDH), recombinant wild type, SEQ ID NO: 7 (Thermothelomyces fergusii) (protein)
chain: QMTEGTYTHEATGITFKTWTPSDGSTFTFGLALPGDALTNDATEYIGLLRCQITDPSSPGYCGISHGQSGQMTQALLLVAWASEDVVYTSFRYATGYTLPELYTGDAKLTQIASSVSGDSFEVLFRCENCFSWDQNGATGSVSTSNGALVLGYAASKSGLTGATCPDTAEFGFHNNGFGQWGAVLEGATSDSYEEWAQLATITPPTTCDGNGPGDKVCVPAPEDTYDYIVVGAGAGGITVADKLSEAGHKVLLIEKGPPSTGLWNGTMKPEWLEGTDLTRFDVPGLCNQIWVDSAGIACTDTDQMAGCVLGGGTAVNAGLWWKPHPADWDDNFPHGWKSSDLADATERVFSRIPGTWHPSQDGKLYRQEGFEVISQGLANAGWREVDANQEPSEKNRTYSHSVFMFSGGERGGPLATYLASAAQRSNFNLWVNTSVRRAIRTGPRVSGVELECLADGGFNGTVNLKEGGGVIFSAGAFGSAKLLLRSGIGPEDQLEIVASSKDGETFISKNDWIKLPVGHNLIDHLNTDLIITHPDVVFYDFYAAWDNPITEDKEAYLNSRSGILAQAAPNIGPLMWEEVTPSDGITRQFQWTCRVEGDSSKTNSTHAMTLSQYLGRGVVSRGRMGITSGLTTTVAEHPYLHNDGDLEAVIQGIQNVVDALSQVPDLEWVLPPPNTTVEEYVNSLIVSPANRRANHWMGTAKMGLDDGRSGGSAVVDLNTKVYGTDNLFVVDASIFPGMSTGNPSAMIVIVAEQAAQRILSLRY
[1]
  Km: 86.7 mM
[2]
  Km: 4.08 mM
  kcat: 0.50 s⁻¹
  kcat/Km: 120 M⁻¹ s⁻¹
